# In publication PMC11327110 (2024):
# B1: PAC1–PAC2 heterodimer (protein)
# chain 1: MAATFFGEVVKAPCRAGTEDEEEEEEGRRETPEDREVRLQLARKREVRLLRRQTKTSLEVSLLEKYPCSKFIIAIGNNAVAFLSSFVMNSGVWEEVGCAKLWNEWCRTTDTTHLSSTEAFCVFYHLKSNPSVFLCQCSCYVAEDQQYQWLEKVFGSCPRKNMQITILTCRHVTDYKTSESTGSLPSPFLRALKTQNFKDSACCPLLEQPNIVHDLPAAVLSYCQVWKIPAILYLCYTDVMKLDLITVEAFKPILSTRSLKGLVKNIPQSTEILKKLMTTNEIQSNIYT
# chain 2: MFVPCGESAPDLAGFTLLMPAVSVGNVGQLAMDLIISTLNMSKIGYFYTDCLVPMVGNNPYATTEGNSTELSINAEVYSLPSRKLVALQLRSIFIKYKSKPFCEKLLSWVKSSGCARVIVLSSSHSYQRNDLQLRSTPFRYLLTPSMQKSVQNKIKSLNWEEMEKSRCIPEIDDSEFCIRIPGGGITKTLYDESCSKEIQMAVLLKFVSEGDNIPDALGLVEYLNEWLQILKPLSDDPTVSASRWKIPSSWRLLFGSGLPPALF
# B2: PAC3–PAC4 heterodimer (protein)
# chain 1: MEDTPLVISKQKTEVVCGVPTQVVCTAFSSHILVVVTQFGKMGTLVSLEPSSVASDVSKPVLTTKVLLGQDEPLIHVFAKNLVAFVSQEAGNRAVLLAVAVKDKSMEGLKALREVIRVCQVW
# chain 2: MEGLVVAAGGDVSLHNFSARLWEQLVHFHVMRLTDSLFLWVGATPHLRNLAVAMCSRYDSIPVSTSLLGDTSDTTSTGLAQRLARKTNKQVFVSYNLQNTDSNFALLVENRIKEEMEAFPEKF
# B3: proteasome maturation protein (POMP) (protein)
# chain: MNARGLGSELKDSIPVTELSASGPFESHDLLRKGFSCVKNELLPSHPLELSEKNFQLNQDKMNFSTLRNIQGLFAPLKLQMEFKAVQQVQRLPFLSSSNLSLDVLRGNDETIGFEDILNDPSQSEVMGEPHLMVEYKLGLL
# Tests used:
# [1] = target: proteasome subunit α6 (PSMA1) (Homo sapiens (Human), UniProt P25786); assay: cryo-EM structure of co-purified complex; contact seen only within the assembled multi-subunit intermediate (HbYX motifs in α5-α6 and α6-α7 pockets); pair not tested in isolation
# Chain of proteasome subunit α6 (PSMA1) (P25786 whole entry): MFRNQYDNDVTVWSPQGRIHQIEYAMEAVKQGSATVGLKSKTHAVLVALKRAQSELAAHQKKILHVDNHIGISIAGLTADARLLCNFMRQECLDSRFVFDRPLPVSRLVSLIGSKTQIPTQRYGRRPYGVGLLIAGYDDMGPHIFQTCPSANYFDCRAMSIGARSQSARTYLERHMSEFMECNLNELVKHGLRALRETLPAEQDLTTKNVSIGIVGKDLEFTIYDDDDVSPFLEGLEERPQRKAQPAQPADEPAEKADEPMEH
# [2] = target: T1, proteasome subunit α4 (PSMA7) (Homo sapiens (Human), UniProt O14818); assay: cryo-EM structure of co-purified complex; contact seen only within the assembled multi-subunit intermediate (complete α-ring, POMP, β2); pair not tested in isolation
# T1 chain: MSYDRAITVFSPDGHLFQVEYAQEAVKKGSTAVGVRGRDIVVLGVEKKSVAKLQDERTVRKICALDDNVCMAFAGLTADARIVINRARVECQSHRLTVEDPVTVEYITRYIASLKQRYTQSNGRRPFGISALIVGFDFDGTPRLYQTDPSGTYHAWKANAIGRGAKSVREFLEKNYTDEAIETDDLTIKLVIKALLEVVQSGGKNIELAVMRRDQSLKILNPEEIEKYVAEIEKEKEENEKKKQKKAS
# [3] = target: T2, proteasome subunit α2 (PSMA2) (Homo sapiens (Human), UniProt P25787); assay: as above
# T2 chain: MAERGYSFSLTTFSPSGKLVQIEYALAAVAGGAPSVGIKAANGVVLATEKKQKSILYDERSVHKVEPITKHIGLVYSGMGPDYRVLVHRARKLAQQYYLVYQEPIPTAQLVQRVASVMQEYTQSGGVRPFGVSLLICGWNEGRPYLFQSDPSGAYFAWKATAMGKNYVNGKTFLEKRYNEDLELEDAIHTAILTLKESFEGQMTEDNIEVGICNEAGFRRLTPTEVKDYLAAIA
# [4] = target: T3, proteasome subunit α7 (PSMA3) (Homo sapiens (Human), UniProt P25788); assay: cryo-EM structure of co-purified complex; contact seen only within the assembled multi-subunit intermediate (PAC2 C-terminus in α6-α7 pocket); pair not tested in isolation
# T3 chain: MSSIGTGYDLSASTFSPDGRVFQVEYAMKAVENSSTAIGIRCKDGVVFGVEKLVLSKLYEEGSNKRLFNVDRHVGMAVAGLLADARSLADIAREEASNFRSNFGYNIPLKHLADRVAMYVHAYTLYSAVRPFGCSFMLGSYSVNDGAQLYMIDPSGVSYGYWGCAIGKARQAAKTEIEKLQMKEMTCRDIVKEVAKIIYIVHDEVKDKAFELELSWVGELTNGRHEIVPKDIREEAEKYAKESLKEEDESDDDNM
# [5] = target: T4, proteasome subunit α5 (PSMA5) (Homo sapiens (Human), UniProt P28066); assay: cryo-EM structure of co-purified complex; contact seen within the assembled multi-subunit intermediate (complete α-ring, POMP, β2); isolated pair only cited from earlier work
# T4 chain: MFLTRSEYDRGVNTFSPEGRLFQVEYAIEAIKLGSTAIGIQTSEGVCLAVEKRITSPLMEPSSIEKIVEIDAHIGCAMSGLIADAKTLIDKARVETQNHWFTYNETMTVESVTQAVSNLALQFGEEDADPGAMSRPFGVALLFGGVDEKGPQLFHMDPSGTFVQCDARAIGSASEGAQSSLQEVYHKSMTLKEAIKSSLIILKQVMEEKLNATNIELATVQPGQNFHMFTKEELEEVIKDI
# [6] = target: T5, proteasome subunit α3 (PSMA4) (Homo sapiens (Human), UniProt P25789); assay: cryo-EM structure of co-purified complex; contact seen only within structure 1 (complete α-ring, PAC1/PAC2, POMP, β2); pair not tested in isolation
# T5 chain: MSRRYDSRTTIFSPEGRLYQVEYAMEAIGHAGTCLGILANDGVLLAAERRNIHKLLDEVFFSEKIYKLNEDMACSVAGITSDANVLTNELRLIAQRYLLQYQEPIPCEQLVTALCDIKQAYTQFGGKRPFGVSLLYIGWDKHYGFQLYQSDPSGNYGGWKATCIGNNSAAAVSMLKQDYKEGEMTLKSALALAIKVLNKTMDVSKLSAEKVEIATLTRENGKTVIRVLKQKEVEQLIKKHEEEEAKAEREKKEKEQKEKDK
# [7] = target: T5, proteasome subunit α3 (PSMA4); assay: cryo-EM structure of co-purified complex; contact seen within the assembled multi-subunit intermediate; isolated pair only cited from earlier yeast two-hybrid
binder,measurement,setting,value
B1,binding result,[1],binds
same,binding result,[2],binds
same,binding result,[3],binds
same,binding result,[4],binds
same,binding result,[5],binds
B2,binding result,[6],binds
B3,binding result,[7],binds
